Assay results reported in IntAct's records for PubMed 25910212.

B1: Acetylcholine receptor subunit gamma (Homo sapiens), P07510-2 (parent)
chain: MHGGQGPLLLLLLLAVCLGAQGRNQEERLLADLMQNYDPNLRPAERDSDVVNVSLKLTLTNLISLNEREEALTTNVWIEMQWCDYRLRWDPRDYEGLWVLRVPSTMVWRPDIVLENKSQTYSTNEIDLQLSQEDGQTIEWIFIDPEAFTENGEWAIQHRPAKMLLDPAAPAQEAGHQKVVFYLLIQRKPLFYVINIIAPCVLISSVAILIHFLPAKAGGQKCTVAINVLLAQTVFLFLVAKKVPETSQAVPLISKYLTFLLVVTILIVVNAVVVLNVSLRSPHTHSMARGVRKVFLRLLPQLLRMHVRPLAPAAVQDTQSRLQNGSSGWSITTGEEVALCLPRSELLFQQWQRQGLVAAALEKLEKGPELGLSQFCGSLKQAAPAIQACVEACNLIACARHQQSHFDNGNEEWFLVGRVLDRVCFLAMLSLFICGTAGIFLMAHYNRVPALPFPGDPRPYLPSPD
partner: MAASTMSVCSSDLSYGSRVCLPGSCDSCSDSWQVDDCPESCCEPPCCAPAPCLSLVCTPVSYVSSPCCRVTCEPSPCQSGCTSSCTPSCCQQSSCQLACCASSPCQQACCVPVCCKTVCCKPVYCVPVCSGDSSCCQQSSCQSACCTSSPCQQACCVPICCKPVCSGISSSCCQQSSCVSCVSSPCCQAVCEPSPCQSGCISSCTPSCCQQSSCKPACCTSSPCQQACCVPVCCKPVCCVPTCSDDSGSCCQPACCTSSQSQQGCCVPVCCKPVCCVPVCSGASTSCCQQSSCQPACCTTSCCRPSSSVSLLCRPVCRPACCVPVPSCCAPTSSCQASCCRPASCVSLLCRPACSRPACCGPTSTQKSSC
B2: E3 ubiquitin-protein ligase Midline-1 (Homo sapiens), O15344 (parent)
chain: METLESELTCPICLELFEDPLLLPCAHSLCFNCAHRILVSHCATNESVESITAFQCPTCRHVITLSQRGLDGLKRNVTLQNIIDRFQKASVSGPNSPSETRRERAFDANTMTSAEKVLCQFCDQDPAQDAVKTCVTCEVSYCDECLKATHPNKKPFTGHRLIEPIPDSHIRGLMCLEHEDEKVNMYCVTDDQLICALCKLVGRHRDHQVAALSERYDKLKQNLESNLTNLIKRNTELETLLAKLIQTCQHVEVNASRQEAKLTEECDLLIEIIQQRRQIIGTKIKEGKVMRLRKLAQQIANCKQCIERSASLISQAEHSLKENDHARFLQTAKNITERVSMATASSQVLIPEINLNDTFDTFALDFSREKKLLECLDYLTAPNPPTIREELCTASYDTITVHWTSDDEFSVVSYELQYTIFTGQANVVSLCNSADSWMIVPNIKQNHYTVHGLQSGTKYIFMVKAINQAGSRSSEPGKLKTNSQPFKLDPKSAHRKLKVSHDNLTVERDESSSKKSHTPERFTSQGSYGVAGNVFIDSGRHYWEVVISGSTWYAIGLAYKSAPKHEWIGKNSASWALCRCNNNWVVRHNSKEIPIEPAPHLRRVGILLDYDNGSIAFYDALNSIHLYTFDVAFAQPVCPTFTVWNKCLTIITGLPIPDHLDCTEQLP
partner: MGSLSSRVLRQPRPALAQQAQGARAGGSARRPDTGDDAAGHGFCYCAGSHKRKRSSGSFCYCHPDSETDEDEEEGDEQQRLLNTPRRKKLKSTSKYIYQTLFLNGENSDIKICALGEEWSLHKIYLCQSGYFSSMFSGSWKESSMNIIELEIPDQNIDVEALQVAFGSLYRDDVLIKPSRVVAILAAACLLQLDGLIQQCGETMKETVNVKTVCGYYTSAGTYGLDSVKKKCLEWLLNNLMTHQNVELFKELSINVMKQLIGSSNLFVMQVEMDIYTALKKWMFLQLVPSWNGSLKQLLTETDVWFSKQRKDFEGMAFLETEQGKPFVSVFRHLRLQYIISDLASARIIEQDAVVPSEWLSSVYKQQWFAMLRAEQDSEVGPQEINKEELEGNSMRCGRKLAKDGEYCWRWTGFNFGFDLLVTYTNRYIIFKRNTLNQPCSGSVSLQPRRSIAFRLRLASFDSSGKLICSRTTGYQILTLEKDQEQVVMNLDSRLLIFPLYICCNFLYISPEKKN
B3: Meiotic recombination protein DMC1/LIM15 homolog (Homo sapiens), Q14565 (parent)
chain: MKEDQVVAEEPGFQDEEESLFQDIDLLQKHGINVADIKKLKSVGICTIKGIQMTTRRALCNVKGLSEAKVDKIKEAANKLIEPGFLTAFEYSEKRKMVFHITTGSQEFDKLLGGGIESMAITEAFGEFRTGKTQLSHTLCVTAQLPGAGGYPGGKIIFIDTENTFRPDRLRDIADRFNVDHDAVLDNVLYARAYTSEHQMELLDYVAAKFHEEAGIFKLLIIDSIMALFRVDFSGRGELAERQQKLAQMLSRLQKISEEYNVAVFVTNQMTADPGATMTFQADPKKPIGGHILAHASTTRISLRKGRGELRIAKIYDSPEMPENEATFAITAGGIGDAKE
partner: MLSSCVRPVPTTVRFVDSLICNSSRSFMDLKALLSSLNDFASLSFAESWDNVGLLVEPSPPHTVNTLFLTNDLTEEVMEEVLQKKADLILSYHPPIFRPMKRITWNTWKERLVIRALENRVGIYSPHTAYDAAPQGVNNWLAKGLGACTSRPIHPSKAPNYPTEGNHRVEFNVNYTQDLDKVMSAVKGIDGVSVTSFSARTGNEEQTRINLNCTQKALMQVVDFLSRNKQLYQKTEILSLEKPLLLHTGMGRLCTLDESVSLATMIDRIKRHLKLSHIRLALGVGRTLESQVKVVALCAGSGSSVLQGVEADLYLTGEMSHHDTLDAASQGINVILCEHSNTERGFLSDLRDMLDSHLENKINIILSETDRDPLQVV
B4: Chorion-specific transcription factor GCMb (Homo sapiens), O75603 (parent)
chain: MPAAAVQEAVGVCSYGMQLSWDINDPQMPQELALFDQFREWPDGYVRFIYSSDEKKAQRHLSGWAMRNTNNHNGHILKKSCLGVVVCTQACTLPDGSRLQLRPAICDKARLKQQKKACPNCHSALELIPCRGHSGYPVTNFWRLDGNAIFFQAKGVHDHPRPESKSETEARRSAIKRQMASFYQPQKKRIRESEAEENQDSSGHFSNIPPLENPEDFDIVTETSFPIPGQPCPSFPKSDVYKATCDLATFQGDKMPPFQKYSSPRIYLPRPPCSYELANPGYTNSSPYPTLYKDSTSIPNDTDWVHLNTLQCNVNSYSSYERSFDFTNKQHGWKPALGKPSLVERTNHGQFQAMATRPYYNPELPCRYLTTPPPGAPALQTVITTTTKVSYQAYQPPAMKYSDSVREVKSLSSCNYAPEDTGMSVYPEPWGPPVTVTRAASPSGPPPMKIAGDCRAIRPTVAIPHEPVSSRTDEAETWDVCLSGLGSAVSYSDRVGPFFTYNNEDF
partner: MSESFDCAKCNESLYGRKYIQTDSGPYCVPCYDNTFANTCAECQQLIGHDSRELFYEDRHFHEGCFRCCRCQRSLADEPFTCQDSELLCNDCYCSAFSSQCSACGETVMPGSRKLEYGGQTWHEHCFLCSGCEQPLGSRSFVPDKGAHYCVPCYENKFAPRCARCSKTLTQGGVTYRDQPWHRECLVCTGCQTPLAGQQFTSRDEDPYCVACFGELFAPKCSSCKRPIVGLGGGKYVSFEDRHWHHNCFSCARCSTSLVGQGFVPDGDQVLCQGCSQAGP

Variants of: B1
Conditions: with kr107_human KRTAP10-7, P60409

Row | effect of a mutation on the interaction | Variant
1 | disrupting interaction strength | V107G
2 | disrupting interaction strength | R86C
3 | disrupting interaction strength | R187C

Variants of: B2
Conditions: with gmcl1_human GMCL1, Q96IK5

Row | effect of a mutation on the interaction | Variant
4 | with no effect | C266R
5 | with no effect | P151L
6 | with no effect | L626P
7 | with no effect | K370E

Variants of: B3
Conditions: with nif3l_human NIF3L1, Q9GZT8

Row | effect of a mutation on the interaction | Variant
8 | disrupting interaction strength | M200V

Variants of: B4
Conditions: with fhl3_human FHL3, Q13643

Row | effect of a mutation on the interaction | Variant
9 | with no effect | G63S
10 | disrupting interaction strength | R47L
